The source of these data is patent publication US20230295310A1 (ABCELLERA BIOLOGICS, published 2023).

The experiment has as its target EGFR on HeLa cells (UniProt P00533 25-1210, limits assumed). The experiment is described as follows: cell-based or functional assay.

B1: GOMP001_bsAb_029 (bispecific antibody, human IgG1, kappa, L234A L235A)
heavy 1: QVQLVQSGAEVKKPGASVKVSCKASGYTFTSHWMHWVRKAPGQGLEWIGEFNPSNGRTNYNEEFKSKATMTVDTSTNTAYMELSSLRSEDTAVYYCASRDYDYDGRYFDYWGQGTLVTVSSASTKGPSVFPLAPSSKSTSGGTAALGCLVADYFPEPVTVSWNSGALTSGVHTFPAVLQSSGLYSLSSVVTVPSSSLGTQTYICNVNHKPSNTKVDEKVEPKSCDKTHTCPPCPAPEAAGGPSVFLFPPKPKDTLMISRTPEVTCVVVDVSHEDPEVKFNWYVDGVEVHNAKTKPREEQYNSTYRVVSVLTVLHQDWLNGKEYKCKVSNKALPAPIEKTISKAKGQPREPQVYTLPPSREEMTDNQVSLTCLVKGFYPSDIAVEWESNGQPENNYKTTPPVLMSDGSFFLASKLTVDKSRWQQGNVFSCSVMHEALHNHYTQKSLSLSPG
light 1: RIQMTQSPSSLSASVGDRVTITCSASSSVTYMYWYQDKPGKAPKLLIYDTSNLASGVPSRFSGSGSGTDYTFTISSLQPEDIATYYCQQWSSHIFTFGQGTKVEIKRTVAAPSVFIFPPSDKQLKSGTARVVCLLNNFYPREAKVQWKVDNALQSGNSQESVTEQDSKDSTYSLSSTLTLSKADYEKHKVYACEVTHQGLSSPVTKSFNRGEC
heavy 2: QVQLVQSGAEVKKPGASVKVSCKASGYTVTGYYMHWVRYAPGQGLEWMGWINPNSGGTNFAQRFQGRVTMTRDTSISTFYMDLNRLRSDDTAVYYCARGGAPVSYWFFDLWGRGTLVTVSSASTKGPSVFPLAPSSKSTSGGTAALGCLVKDYFPEPVTVSWNSGALTSGVHTFPAVLQSSGLYSLSSVVTVPSSSLGTQTYICNVNHKPSNTKVDKKVEPKSCDKTHTCPPCPAPEAAGGPSVFLFPPKPKDTLMISRTPEVTCVVVDVSHEDPEVKFNWYVDGVEVHNAKTKPREEQYNSTYRVVSVLTVLHQDWLNGKEYKCKVSNKALPAPIEKTISKAKGQPRRPRVYTLPPSREEMTKNQVSLVCLVKGFYPSDIAVEWESNGQPENNYKTTPPVLDSDGSFFLYSVLTVDKSRWQQGNVFSCSVMHEALHNHYTQKSLSLSPG
light 2: DIQMTQSPSSLSASVGDRVTITCRASQSISRYLNWYQRKPGDAPKVLIYNTSSLKSGVPSRFSGSGSGTDFTLTISSLQPEDFGTFYCQQSHSTPFTFGPGTKVDIKRTVAAPSVFIFPPSDEQLKSGTASVVCLLNNFYPREAKVQWKVDNALQSGNSQESVTEQDSKDSTYSLSSTLTLSKADYEKHKVYACEVTHQGLSSPVTKSFNRGEC
Turning to B1, the Max killing % came to 81.1% and the “X… HeLa EC50” value came out at 0.136 nM.

B2: GOMP001_bsAb_032 (bispecific antibody, human IgG1, kappa, L234A L235A)
heavy 1: QGQLVESGGGVVQPGRSLRLSCAASGFTFRGFGMHWVRKAPGKGLEWVAIIYYDGKNKYYADEVKGRFTISRDNSKNTLYLQMNSLRAEDTAVYYCAKGGGYNWFDPWGQGTLVTVSSASTKGPSVFPLAPSSKSTSGGTAALGCLVADYFPEPVTVSWNSGALTSGVHTFPAVLQSSGLYSLSSVVTVPSSSLGTQTYICNVNHKPSNTKVDEKVEPKSCDKTHTCPPCPAPEAAGGPSVFLFPPKPKDTLMISRTPEVTCVVVDVSHEDPEVKFNWYVDGVEVHNAKTKPREEQYNSTYRVVSVLTVLHQDWLNGKEYKCKVSNKALPAPIEKTISKAKGQPREPQVYTLPPSREEMTDNQVSLTCLVKGFYPSDIAVEWESNGQPENNYKTTPPVLMSDGSFFLASKLTVDKSRWQQGNVFSCSVMHEALHNHYTQKSLSLSPG
light 1: RIQMTQSPSSLSASVGDRVTITCRASQSISTYLNWYQDKPGKAPKLLIYSASSLQSGVPSRFSGSGSGTDFTLTISNLQPEDFAIYYCQRSYSPPFTFGPGTKLDIRRTVAAPSVFIFPPSDKQLKSGTARVVCLLNNFYPREAKVQWKVDNALQSGNSQESVTEQDSKDSTYSLSSTLTLSKADYEKHKVYACEVTHQGLSSPVTKSFNRGEC
heavy 2: QVQLVQSGAEVKKPGASVKVSCKASGYTFTSHWMHWVRYAPGQGLEWIGEFNPSNGRTNYNEKFKSKATMTVDTSTNTAYMELSSLRSEDTAVYYCASRDYDYDGRYFDYWGRGTLVTVSSASTKGPSVFPLAPSSKSTSGGTAALGCLVKDYFPEPVTVSWNSGALTSGVHTFPAVLQSSGLYSLSSVVTVPSSSLGTQTYICNVNHKPSNTKVDKKVEPKSCDKTHTCPPCPAPEAAGGPSVFLFPPKPKDTLMISRTPEVTCVVVDVSHEDPEVKFNWYVDGVEVHNAKTKPREEQYNSTYRVVSVLTVLHQDWLNGKEYKCKVSNKALPAPIEKTISKAKGQPRRPRVYTLPPSREEMTKNQVSLVCLVKGFYPSDIAVEWESNGQPENNYKTTPPVLDSDGSFFLYSVLTVDKSRWQQGNVFSCSVMHEALHNHYTQKSLSLSPG
light 2: DIQMTQSPSSLSASVGDRVTITCSASSSVTYMYWYQRKPGDAPKLLIYDTSNLASGVPSRFSGSGSGTDYTFTISSLQPEDIATYYCQQWSSHIFTFGQGTKVEIKRTVAAPSVFIFPPSDEQLKSGTASVVCLLNNFYPREAKVQWKVDNALQSGNSQESVTEQDSKDSTYSLSSTLTLSKADYEKHKVYACEVTHQGLSSPVTKSFNRGEC
Consider B2, for which the Max killing % was 98.1% and the “X… HeLa EC50” value is 0.061 nM.

B3: GOMP001_bsAb_030 (bispecific antibody, human IgG1, kappa, L234A L235A)
heavy 1: QVQLVQSGAEVKKPGASVKVSCKASGYTVTGYYMHWVRKAPGQGLEWMGWINPNSGGTNFAQEFQGRVTMTRDTSISTFYMDLNRLRSDDTAVYYCARGGAPVSYWFFDLWGRGTLVTVSSASTKGPSVFPLAPSSKSTSGGTAALGCLVADYFPEPVTVSWNSGALTSGVHTFPAVLQSSGLYSLSSVVTVPSSSLGTQTYICNVNHKPSNTKVDEKVEPKSCDKTHTCPPCPAPEAAGGPSVFLFPPKPKDTLMISRTPEVTCVVVDVSHEDPEVKFNWYVDGVEVHNAKTKPREEQYNSTYRVVSVLTVLHQDWLNGKEYKCKVSNKALPAPIEKTISKAKGQPREPQVYTLPPSREEMTDNQVSLTCLVKGFYPSDIAVEWESNGQPENNYKTTPPVLMSDGSFFLASKLTVDKSRWQQGNVFSCSVMHEALHNHYTQKSLSLSPG
light 1: RIQMTQSPSSLSASVGDRVTITCRASQSISRYLNWYQDKPGKAPKVLIYNTSSLKSGVPSRFSGSGSGTDFTLTISSLQPEDFGTFYCQQSHSTPFTFGPGTKVDIKRTVAAPSVFIFPPSDKQLKSGTARVVCLLNNFYPREAKVQWKVDNALQSGNSQESVTEQDSKDSTYSLSSTLTLSKADYEKHKVYACEVTHQGLSSPVTKSFNRGEC
heavy 2: QVQLVQSGAEVKKPGASVKVSCKASGYTFTSHWMHWVRYAPGQGLEWIGEFNPSNGRTNYNEKFKSKATMTVDTSTNTAYMELSSLRSEDTAVYYCASRDYDYDGRYFDYWGRGTLVTVSSASTKGPSVFPLAPSSKSTSGGTAALGCLVKDYFPEPVTVSWNSGALTSGVHTFPAVLQSSGLYSLSSVVTVPSSSLGTQTYICNVNHKPSNTKVDKKVEPKSCDKTHTCPPCPAPEAAGGPSVFLFPPKPKDTLMISRTPEVTCVVVDVSHEDPEVKFNWYVDGVEVHNAKTKPREEQYNSTYRVVSVLTVLHQDWLNGKEYKCKVSNKALPAPIEKTISKAKGQPRRPRVYTLPPSREEMTKNQVSLVCLVKGFYPSDIAVEWESNGQPENNYKTTPPVLDSDGSFFLYSVLTVDKSRWQQGNVFSCSVMHEALHNHYTQKSLSLSPG
light 2: DIQMTQSPSSLSASVGDRVTITCSASSSVTYMYWYQRKPGDAPKLLIYDTSNLASGVPSRFSGSGSGTDYTFTISSLQPEDIATYYCQQWSSHIFTFGQGTKVEIKRTVAAPSVFIFPPSDEQLKSGTASVVCLLNNFYPREAKVQWKVDNALQSGNSQESVTEQDSKDSTYSLSSTLTLSKADYEKHKVYACEVTHQGLSSPVTKSFNRGEC
As for B3, the Max killing % was found to be 92.6% and the “X… HeLa EC50” value is 0.0454 nM.

B4: GOMP001_bsAb_031 (bispecific antibody, human IgG1, kappa, L234A L235A)
heavy 1: QVQLVQSGAEVKKPGASVKVSCKASGYTFTSHWMHWVRKAPGQGLEWIGEFNPSNGRTNYNEEFKSKATMTVDTSTNTAYMELSSLRSEDTAVYYCASRDYDYDGRYFDYWGQGTLVTVSSASTKGPSVFPLAPSSKSTSGGTAALGCLVADYFPEPVTVSWNSGALTSGVHTFPAVLQSSGLYSLSSVVTVPSSSLGTQTYICNVNHKPSNTKVDEKVEPKSCDKTHTCPPCPAPEAAGGPSVFLFPPKPKDTLMISRTPEVTCVVVDVSHEDPEVKFNWYVDGVEVHNAKTKPREEQYNSTYRVVSVLTVLHQDWLNGKEYKCKVSNKALPAPIEKTISKAKGQPREPQVYTLPPSREEMTDNQVSLTCLVKGFYPSDIAVEWESNGQPENNYKTTPPVLMSDGSFFLASKLTVDKSRWQQGNVFSCSVMHEALHNHYTQKSLSLSPG
light 1: RIQMTQSPSSLSASVGDRVTITCSASSSVTYMYWYQDKPGKAPKLLIYDTSNLASGVPSRFSGSGSGTDYTFTISSLQPEDIATYYCQQWSSHIFTFGQGTKVEIKRTVAAPSVFIFPPSDKQLKSGTARVVCLLNNFYPREAKVQWKVDNALQSGNSQESVTEQDSKDSTYSLSSTLTLSKADYEKHKVYACEVTHQGLSSPVTKSFNRGEC
heavy 2: QGQLVESGGGVVQPGRSLRLSCAASGFTFRGFGMHWVRYAPGKGLEWVAIIYYDGKNKYYADRVKGRFTISRDNSKNTLYLQMNSLRAEDTAVYYCAKGGGYNWFDPWGRGTLVTVSSASTKGPSVFPLAPSSKSTSGGTAALGCLVKDYFPEPVTVSWNSGALTSGVHTFPAVLQSSGLYSLSSVVTVPSSSLGTQTYICNVNHKPSNTKVDKKVEPKSCDKTHTCPPCPAPEAAGGPSVFLFPPKPKDTLMISRTPEVTCVVVDVSHEDPEVKFNWYVDGVEVHNAKTKPREEQYNSTYRVVSVLTVLHQDWLNGKEYKCKVSNKALPAPIEKTISKAKGQPRRPRVYTLPPSREEMTKNQVSLVCLVKGFYPSDIAVEWESNGQPENNYKTTPPVLDSDGSFFLYSVLTVDKSRWQQGNVFSCSVMHEALHNHYTQKSLSLSPG
light 2: DIQMTQSPSSLSASVGDRVTITCRASQSISTYLNWYQRKPGDAPKLLIYSASSLQSGVPSRFSGSGSGTDFTLTISNLQPEDFAIYYCQRSYSPPFTFGPGTKLDIRRTVAAPSVFIFPPSDEQLKSGTASVVCLLNNFYPREAKVQWKVDNALQSGNSQESVTEQDSKDSTYSLSSTLTLSKADYEKHKVYACEVTHQGLSSPVTKSFNRGEC
In turn, B4 gave a Max killing % of 68.8%.
